± gives the standard error. For some of these results: This sample holds only a part of the variants without activity.
B1: glmS ribozyme (parent)
chain: AUAAAAGCGCCAGAACUACAGAAAUGUAGUUGACGAGGAGGAGGUUUAUCGAAUUUUCGGCGGAUGCCUCCAAA

Experiments:
Conditions in all cases: with glucosamine-6-phosphate
glucosamine-6-phosphate [1] = variants of: B1; test: kcat; higher = faster cleavage; RNA array
Method in brief: (§1)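 kcat and KM were obtained from weighted Michaelis–Menten fits across concentrations of kobs values. Those came from one- or two-exponential decay fits to per-tile medians normalised to baseline and to non-cleaving reference variants. The variants were barcoded ribozymes transcribed in situ by E. coli RNA polymerase on sequenced MiSeq chips and tracked through a hybridised Cy3 probe at 37 °C, with 40 μM to 10 mM glucosamine-6-phosphate in HEPES/KCl/Mg(OAc)2 buffer flowed in.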

glucosamine-6-phosphate [2] = variants of: B1; test: self-cleavage kobs at 640 uM GlcN6P; higher = faster cleavage; RNA array
Method in brief: as §1

glucosamine-6-phosphate [3] = variants of: B1; test: self-cleavage kobs at 2500 uM GlcN6P; higher = faster cleavage; RNA array
Method in brief: as §1

glucosamine-6-phosphate [4] = variants of: B1; test: self-cleavage kobs at 10000 uM GlcN6P; higher = faster cleavage; RNA array
Method in brief: as §1

glucosamine-6-phosphate [5] = variants of: B1; test: self-cleavage kobs at 40 uM GlcN6P; higher = faster cleavage; RNA array
Method in brief: as §1

glucosamine-6-phosphate [6] = variants of: B1; test: KM; higher = weaker cofactor use; RNA array
Method in brief: as §1

glucosamine-6-phosphate [7] = variants of: B1; test: self-cleavage kobs at 160 uM GlcN6P; higher = faster cleavage; RNA array
Method in brief: as §1

Variant | kcat (glucosamine-6-phosphate [1]) [s⁻¹] | self-cleavage kobs at 640 uM GlcN6P (glucosamine-6-phosphate [2]) [s⁻¹] | self-cleavage kobs at 2500 uM GlcN6P (glucosamine-6-phosphate [3]) [s⁻¹] | self-cleavage kobs at 10000 uM GlcN6P (glucosamine-6-phosphate [4]) [s⁻¹] | self-cleavage kobs at 40 uM GlcN6P (glucosamine-6-phosphate [5]) [s⁻¹] | KM (glucosamine-6-phosphate [6]) [mM] | self-cleavage kobs at 160 uM GlcN6P (glucosamine-6-phosphate [7]) [s⁻¹]
C16G G40A | 0.000334 ± 0.00011 | 0.000114 ± 2.6e-05 | 0.000473 ± 0.00011 | 0.00027 ± 5.7e-05 |  |  | 
G51C U69G | 1.7e-05 ± 4.2e-06 |  |  |  |  |  | 
A52G C58A | 4.08e-05 ± 7.3e-06 |  | 4.01e-05 ± 9.9e-06 | 3.55e-05 ± 9.9e-06 |  |  | 
C68A C70G | < 1e-05 |  |  | < 1e-05 | < 1e-05 |  | 
A64U G66A | 0.000113 ± 1.2e-05 |  | 4.95e-05 ± 8.6e-06 | 8.32e-05 ± 1e-05 | < 1e-05 | 3.46 ± 0.93 | 
G13C A52G | 1.51e-05 ± 1.5e-06 |  |  |  |  | 3.66 ± 1 | 
A15G U45G | 0.00832 ± 0.00089 | 0.0024 ± 0.00037 | 0.0044 ± 0.00084 | 0.00741 ± 0.001 | 0.000211 ± 3.4e-05 | 1.73 ± 0.26 | 0.000643 ± 9.8e-05
A6U U30C U31G | 9.88e-05 ± 6.8e-06 |  |  | 5.74e-05 ± 1.6e-05 |  | 7.22 ± 1.1 | 
A36G U54G | < 1e-05 |  |  |  | < 1e-05 |  | 
U45A C70A | 0.000375 ± 0.00017 | 0.000179 ± 3.7e-05 | 0.000225 ± 3.4e-05 |  |  |  | 2.63e-05 ± 1.1e-05
A12G A15G | 0.000505 ± 0.00012 | 7.71e-05 ± 9.2e-06 | 0.000155 ± 1.5e-05 | 0.000371 ± 3.2e-05 |  | 4.55 ± 1.8 | 2.24e-05 ± 1e-05
U55C C71A | 0.000398 ± 3.4e-05 | 5.32e-05 ± 6.9e-06 | 0.000174 ± 1.9e-05 | 0.000283 ± 2.2e-05 |  | 3.82 ± 0.6 | 
G32A U54A | 0.00386 ± 0.001 | 0.00067 ± 0.00011 | 0.00157 ± 0.00026 | 0.00286 ± 0.00045 | 6.3e-05 ± 1.3e-05 | 3.52 ± 1.3 | 0.000125 ± 2.9e-05
G41C A53C | 0.000159 ± 1.5e-05 | 1.93e-05 ± 9.5e-06 | 6.77e-05 ± 9.6e-06 | 0.000115 ± 1.5e-05 |  | 3.66 ± 0.72 | 
C16U C68G | 8.6e-05 ± 6.4e-06 | 5.77e-05 ± 1e-05 | 8.4e-05 ± 1e-05 | 7.86e-05 ± 9.3e-06 |  | 0.307 ± 0.14 | 
G38C G51C | 1.04e-05 ± 4.5e-06 |  |  |  |  |  | 
C11G A33U U54G C67A C71U | 1.15e-05 ± 1.8e-06 |  |  |  |  |  | 
A48U U56G | 0.000239 ± 3.7e-06 | 6.91e-05 ± 2e-05 |  | 0.000206 ± 3.9e-05 |  | 1.59 ± 0.058 | 
G40U A42C | 1.23e-05 ± 9.1e-08 |  |  |  |  | 2.28 ± 0.05 | 

Source: the supplement of paper PMC7125110
